In publication PMC12588321, “Congenital heart disease missense mutations in the TBX5 DNA-binding domain alter thermal stability and DNA-binding affinity”:

T1: TBX5 T-box domain I54T (human? (UniProt Q99593 used for …, UniProt Q99593 48-248, I54T))
T1 sequence: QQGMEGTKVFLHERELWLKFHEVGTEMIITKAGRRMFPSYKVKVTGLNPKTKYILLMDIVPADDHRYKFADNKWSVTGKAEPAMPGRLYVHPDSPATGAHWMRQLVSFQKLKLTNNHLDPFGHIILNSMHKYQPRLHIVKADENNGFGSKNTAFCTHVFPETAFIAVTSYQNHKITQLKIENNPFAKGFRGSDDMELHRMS

T2: TBX5 T-box domain R237W (human? (UniProt Q99593 used for …, UniProt Q99593 48-248, R237W))
T2 sequence: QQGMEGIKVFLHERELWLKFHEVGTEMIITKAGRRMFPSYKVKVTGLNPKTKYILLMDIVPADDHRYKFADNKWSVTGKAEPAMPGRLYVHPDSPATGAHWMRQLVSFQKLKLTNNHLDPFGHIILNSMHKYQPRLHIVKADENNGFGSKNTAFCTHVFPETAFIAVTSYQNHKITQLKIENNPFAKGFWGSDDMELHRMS

T3: TBX5 T-box domain M74V (human? (UniProt Q99593 used for …, UniProt Q99593 48-248, M74V))
T3 sequence: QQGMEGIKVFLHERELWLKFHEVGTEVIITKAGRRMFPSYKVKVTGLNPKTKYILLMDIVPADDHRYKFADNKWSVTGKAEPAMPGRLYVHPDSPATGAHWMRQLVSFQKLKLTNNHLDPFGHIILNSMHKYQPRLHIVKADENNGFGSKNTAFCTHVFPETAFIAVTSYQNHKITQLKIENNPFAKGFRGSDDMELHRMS

T4: TBX5 T-box domain R113K (human? (UniProt Q99593 used for …, UniProt Q99593 48-248, R113K))
T4 sequence: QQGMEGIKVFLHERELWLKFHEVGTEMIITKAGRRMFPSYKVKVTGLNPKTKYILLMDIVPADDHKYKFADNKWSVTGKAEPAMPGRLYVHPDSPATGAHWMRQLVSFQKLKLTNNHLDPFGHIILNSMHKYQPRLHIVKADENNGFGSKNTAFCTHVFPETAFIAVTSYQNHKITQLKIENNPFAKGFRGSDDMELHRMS

T5: TBX5 T-box domain I101F (human? (UniProt Q99593 used for …, UniProt Q99593 48-248, I101F))
T5 sequence: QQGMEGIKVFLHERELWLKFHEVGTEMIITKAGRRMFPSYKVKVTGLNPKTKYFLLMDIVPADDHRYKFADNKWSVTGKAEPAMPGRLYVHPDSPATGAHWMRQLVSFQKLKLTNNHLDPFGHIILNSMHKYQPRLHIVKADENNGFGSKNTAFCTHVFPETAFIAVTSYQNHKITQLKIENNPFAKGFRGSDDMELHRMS


Legend:
Experiment in all cases: EMSA; EMSA: 50 mM NaCl, 10 mM Tris-HCl pH 8.0, 10% glycerol; protein 0-2000 nM; 30 min at 30 °C then 30 min at room temperature; 6% native PAGE in 0.5x TBE; 3 replicates
Details in all cases: protein: recombinant; tags: N-terminal Strep-Tag II, C-terminal 10xHis; label: IRDye 700
TBX5 T-box domain I54T = biological target: T1, TBX5 T-box domain I54T
TBX5 T-box domain R237W = biological target: T2, TBX5 T-box domain R237W
TBX5 T-box domain M74V = biological target: T3, TBX5 T-box domain M74V
TBX5 T-box domain R113K = biological target: T4, TBX5 T-box domain R113K
TBX5 T-box domain I101F = biological target: T5, TBX5 T-box domain I101F

Row | Binder | binding signal (TBX5 T-box domain I54T) [fold change in Bmax vs WT] | binding signal (TBX5 T-box domain R237W) [fold change in Bmax vs WT] | binding signal (TBX5 T-box domain M74V) [fold change in Bmax vs WT] | binding signal (TBX5 T-box domain R113K) [fold change in Bmax vs WT] | binding signal (TBX5 T-box domain I101F) [fold change in Bmax vs WT]
1 | Camta1 promoter probe (dsDNA) DNA 1: GCAGATCTCCTGCTGGGCTGACACCTCACTATCGCAGAACCGTGCCAATGCCGCCGTAAG DNA 2: CTTACGGCGGCATTGGCACGGTTCTGCGATAGTGAGGTGTCAGCCCAGCAGGAGATCTGC | -1.34 | -10.5 | -2.93 | -1.49 | -1.38
2 | Nppa (ANF) promoter probe (dsDNA) DNA 1: CCCGGTTTTGTGATTCTCTCTCTCACACCTTCAGCAGGAACGTGCCAATGCCGCCGTAAG DNA 2: CTTACGGCGGCATTGGCACGTTCCTGCTGAAGGTGTGAGAGAGAGAATCACAAAACCGGG | -1.65 | -3.76 | -3.27 | -2.87 | -1.26
